Assay [1] addresses N-terminal Flag-tagged LRRC33 with its C-terminal transmembrane domain substituted with that of GARP (WT). As to the kind of experiment: flow cytometry on cells. The conditions noted are these: for response: n = 3, mean ± s.d., read off a plot. On the technique in general: A flow cytometer gives signals particle by particle.
Assay [2] shares this target. The assay can be described thus: flow cytometry on cells. Particulars: n = 3, mean ± s.d., read off a plot.
For assay [3], the target named is L-TGF-β1 WT with the furin cleavage site between LAP and the growth factor replaced with an HA tag (UniProt P01137). The assay can be described thus: flow cytometry on cells.
Assay [4] concerns the target L-TGF-β1 C4S/R249A (the 'WT' of the SPR assay) (human). As to the kind of experiment: SPR; Biacore T200, 25 °C; L-TGF-β1 (C4S/R249A, or + RGEGATG) immobilised on a CM5 chip by amine coupling; integrin headpieces injected at 20 μl/min in 20 mM HEPES pH 7.5, 150 mM NaCl, 1 mM MgCl2, 1 mM CaCl2; 1:1 Langmuir model. For orientation: SPR reads the build-up and loss of mass on a sensor chip optically.

Setting [5] is: Expi293F cells co-transfected with L-TGF-β1 and LRRC33, anti-HA staining.

The values that follow come from paper PMC9411592.

Where two headings read alike, the source gives them in different places.

In assay [1], “L-TGF-β1 WT with the furin cleavage site between LAP and the growth factor replaced with an HA tag (from UniProt P01137) H317I” displayed an other: percentage of L-TGF-β+ (anti-HA+) subset of 9.58%. For the same substance, the response was determined as 2800 MFI in assay [1] (parent: est. 21000) and 3600 MFI in assay [2] (parent: est. 21000).
Regarding “L-TGF-β1 WT with the furin cleavage site between LAP and the growth factor replaced with an HA tag (from UniProt P01137) H317L”, in assay [1] (parent: est. 21000), the response turned out to be 6000 MFI.
Still for that read-out and setting: the value for “L-TGF-β1 WT with the furin cleavage site between LAP and the growth factor replaced with an HA tag (from UniProt P01137) I300L” was 16000 MFI; that for “L-TGF-β1 WT with the furin cleavage site between LAP and the growth factor replaced with an HA tag (from UniProt P01137) K309R” was 15000 MFI.
The same measure, in the same setting: the value for “L-TGF-β1 WT with the furin cleavage site between LAP and the growth factor replaced with an HA tag (from UniProt P01137) K309T” was 5500 MFI.
Turning to “L-TGF-β1 WT with the furin cleavage site between LAP and the growth factor replaced with an HA tag (from UniProt P01137) K309T; H317L”, the other: percentage of L-TGF-β+ (anti-HA+) subset in assay [1] was 15.2%. Moreover, in assay [2] (parent: est. 21000), the response turned out to be 3400 MFI.
In the case of “L-TGF-β1 WT with the furin cleavage site between LAP and the growth factor replaced with an HA tag (from UniProt P01137) L303A”, the response in assay [1] (parent: est. 21000) amounted to 26000 MFI.
As for “L-TGF-β1 WT with the furin cleavage site between LAP and the growth factor replaced with an HA tag (from UniProt P01137) L303S”, the response in assay [1] (parent: est. 21000) was determined as 25000 MFI.
The same measure, in the same setting: as for “L-TGF-β1 WT with the furin cleavage site between LAP and the growth factor replaced with an HA tag (from UniProt P01137) P296A”, the figure is 16000 MFI; as for “L-TGF-β1 WT with the furin cleavage site between LAP and the growth factor replaced with an HA tag (from UniProt P01137) Q306T”, 13000 MFI.
“L-TGF-β1 WT with the furin cleavage site between LAP and the growth factor replaced with an HA tag (from UniProt P01137) W301A” came in with an other: percentage of L-TGF-β+ (anti-HA+) subset in assay [1] (setting [5]) of 28.7%. Moreover, the response in assay [1] (Expi293F cells, parent: est. 22000) worked out at 5300 MFI.
Regarding “L-TGF-β1 WT with the furin cleavage site between LAP and the growth factor replaced with an HA tag (from UniProt P01137) W301R”, the response in assay [1] (parent: est. 21000) was found to be 14000 MFI.
Substance “L-TGF-β1 WT with the furin cleavage site between LAP and the growth factor replaced with an HA tag (from UniProt P01137) W301R; K309T; H317L” yielded an other: percentage of L-TGF-β+ (anti-HA+) subset in assay [1] of 12.3%. Also, the response in assay [2] (parent: est. 21000) amounted to 3500 MFI.
“L-TGF-β1 WT with the furin cleavage site between LAP and the growth factor replaced with an HA tag (from UniProt P01137) Y307H”: the response in assay [1] (parent: est. 21000) was determined as 28000 MFI.
For “L-TGF-β2 WT with HA tag in place of the furin cleavage site (from UniProt P61812) I350H”, the other: percentage of L-TGF-β+ (anti-HA+) subset in assay [1] turned out to be 44.6%. In assay [2] (parent: est. 2800), the response came to 11000 MFI.
As to “L-TGF-β3 WT with HA tag in place of the furin cleavage site (from UniProt P10600) R328W; T336K; L344H”, the other: percentage of L-TGF-β+ (anti-HA+) subset in assay [1] came out at 21.5%. In addition, in assay [2] (parent: est. 2700), the response is 5500 MFI.
Regarding “L-TGF-β3 WT with HA tag in place of the furin cleavage site (from UniProt P10600) T336K; L344H”, the other: percentage of L-TGF-β+ (anti-HA+) subset in assay [1] is 14.4%. Moreover, the response in assay [2] (parent: est. 2700) worked out at 4000 MFI.
“N-terminal Flag-tagged LRRC33 with its C-terminal transmembrane domain substituted with that of GARP (WT) Y174R”: the other: percentage of L-TGF-β+ (anti-HA+) subset in assay [3] (setting [5]) is 23.1%. Besides, in assay [3] (Expi293F cells, n = 3, mean ± s.d., parent: est. 22000, read off a plot), the response is 4000 MFI.
As a reminder, the Kd is a measure of binding affinity in units of concentration. For “integrin αVβ8-6DLL headpiece (the disulfide-linked loop of β8 substituted by that of β6) (complex)”, the Kd in assay [4] stood at 0.0198 µM.
Same read-out and setting: the value for “αVβ8-IgG1 Fc (heterotetramer of αVβ8 linked by the IgG1 Fc fragment on the C-terminus of β8) (Fc fusion)” was 0.00575 µM.
